Results published in article doi:10.1101/2021.01.20.427433.

Target: 6xHis-XRCC4^1-164 (C-to-A), wildtype for the SIMs (human) (UniProt Q13426)
Assay: SPR

fold increase in KD against full-length XRCC4: 3 fold
Substance: polySUMO2 chains (enzymatically linked via the internal K11) (from UniProt P61956 1-95)
